Data: article doi:10.1101/2023.09.08.556349 (bioRxiv, 2023)

B1: 3548-RBD-15 (antibody, V domains shown)
VH: QVQLQESGPGLVKPSETLSLTCTVSGGSVSSYYWSWIRQPPGKGLEWIGYIYYSGSTNYNPSLKSRVTISVDTSKNQFSLKLSSVTAADTAVYYCAKGIYSSSSYWGDPWGQGTLVTVSS
VL: not shown
B2: 3548-S-2 (antibody, V domains shown)
VH: QVQLVESGPGLVKPSQTLSLTCTVSGGSISSGGYYWSWIRQHPGRGLERIGYIYYSGSTYYNPSLKSRVTISVDTSKDQFSLKLTSVTAADSAVYYCARGSRNDLRDFDYWGQGTLVTVSS
VL: QSVMTQPPSVSGAPGQRVTISCSGSSSNIGNNYVSWYQQLPGTAPKLLIYGNSNRSSRVPDRFSGSKSGTSASLAITGLQAEDEADYYCQSYNSSLSGLVVFGGGTQLTAL

Key:
[1] = molecular target: SARS-CoV-2 Spike S1-His Tag (HPLC-verified), NR-53798 (SARS-CoV-2 Wuhan-Hu-1, UniProt P0DTC2); test: ELISA
[2] = molecular target: SARS-CoV-2 RBD-SD1 (Wu), S residues 319 to 591 (SARS-CoV-2 Wuhan-Hu-1, UniProt P0DTC2); test: ELISA

Binder	binding result [1]	binding result [2]
B1	binds	binds
B2		binds
